# Experimental data published in paper PMC7414181.
# Experiments:
# CD4-Ig [1] = target: CD4-Ig (UniProt P01730)
# CD4-Ig [2] = target: CD4-Ig (UniProt P01730); experiment: SPR; CD4-Ig captured on a protein A biosensor chip; monomeric gp120 proteins flowed over as a fourfold dilution series with a maximum concentration of 250 nM
# [3] = target: YU2_(E466K) gp120 (HIV-1 (strain YU2))
# [4] = target: YU2_(G471R) gp120 (HIV-1 (strain YU2))
# [5] = target: YU2_(G458D) gp120 (HIV-1 (strain YU2))
# [6] = target: YU2_(G366E) (HIV-1 (strain YU2))
# [7] = target: YU2wt gp120 (HIV-1 strain YU2) (UniProt P35961)
Substance,Kd (CD4-Ig [1]) [nM],koff (CD4-Ig [1]) [s⁻¹],kon (CD4-Ig [1]) [M⁻¹ s⁻¹],further results
YU2E466K gp120 (natural protein),1.7,0.00027,160000,–
YU2G458D gp120 (natural protein),6,0.00121,200000,–
YU2G471R gp120 (natural protein),1.6,0.00021,140000,–
YU2_(G458D) gp120 (natural protein),–,–,–,fold faster dissociation than YU2wt gp120 (CD4-Ig [2]): 11 fold
sCD4 D1D2 (domain or fragment),–,–,–,"neutralization of YU2 mutant pseudovirus by sCD4, TZM-bl assay, loss of sensitivity against YU2wt [3]: 30 fold; neutralization of YU2 mutant pseudovirus by sCD4, TZM-bl assay, loss of sensitivity against YU2wt [4]: 30 fold; neutralization of YU2 mutant pseudovirus by sCD4, TZM-bl assay, loss of sensitivity against YU2wt [5]: 30 fold; neutralization of YU2 mutant pseudovirus by sCD4, TZM-bl assay, loss of sensitivity against YU2wt [6]: 30 fold; Table S5: IC50 of sCD4 in the in vitro neutralisation of YU2wt pseudovirus on TZM-bl cells (blocks Env from CD4 on target cells) [7]: 0.29 µg/mL"
